Results published in patent publication US20210002621, “CTLA4 HOMING ENDONUCLEASE VARIANTS, COMPOSITIONS, AND METHODS OF USE” (bluebird bio, Inc., published 2021).
Numbering of substitutions follows the chain as printed.

How the values were obtained:
[1] = biological target: T1, CTLA4.B3.B6 I-OnuI HE variant (Ophiostoma novo-ulmi); test: cell_activity; chromosomal iRFP reporter in HEK 293T
T1 chain: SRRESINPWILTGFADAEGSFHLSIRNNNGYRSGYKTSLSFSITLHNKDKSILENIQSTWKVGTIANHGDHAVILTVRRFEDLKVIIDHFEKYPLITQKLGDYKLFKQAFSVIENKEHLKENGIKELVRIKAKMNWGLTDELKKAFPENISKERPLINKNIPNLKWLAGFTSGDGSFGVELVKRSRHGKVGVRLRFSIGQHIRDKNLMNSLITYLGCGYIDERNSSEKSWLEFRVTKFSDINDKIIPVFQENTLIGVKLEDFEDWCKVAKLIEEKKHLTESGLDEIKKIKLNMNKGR
Method: (§1) The activity of reprogrammed I-OnuI HEs that target exon 2 of the CTLA4 gene was measured using a chromosomally integrated fluorescent reporter system (Certo et. al., 2011). Fully reprogrammed I-OnuI HEs that bind and cleave the CTLA4 target sequence (SEQ ID NO: 13) were cloned into mammalian expression plasmids and then individually transfected into a HEK 293T […] cell line that contained the CTLA4 target sequence upstream of an out-of-frame gene encoding the fluorescent iRFP protein. Cleavage of the embedded target site by the HE and the accumulation of indels following DNA repair via the non-homologous end joining (NHEJ) pathway results in approximately one out of three repaired loci placing the fluorescent reporter gene back “in-frame”. The percentage of iRFP fluorescing HEK 293T cells is therefore used a readout of endonuclease activity at the chromosomally embedded target sequence. […] FIG. 3 (left panel).
(§2) A secondary I-OnuI variant library was generated by performing random mutagenesis on the CTLA4.B3 HE variant (SEQ ID NO: 6). Display-based flow sorting was performed under more stringent cleavage conditions to isolate variants with improved catalytic efficiency. […] FIG. 3 (middle panel). […] FIG. 3 (right panel).

[2] = biological target: T2, CTLA4.B3.B6.D5 I-OnuI HE variant (Ophiostoma novo-ulmi); test: as above
T2 chain: T1 chain with K228R
Method: as §1, §2

[3] = biological target: T2, CTLA4.B3.B6.D5 I-OnuI HE variant; test: flow; sub-nanomolar affinity; yeast surface affinity titration, value only in figure; conditions: tags: yeast surface display

B1: CTLA4 exon 2 HE target site (dsDNA)
DNA 1: TGGAGATGCATACTCACACACA
DNA 2: TGTGTGTGAGTATGCATCTCCA
B1 was tested. Which activity [1] did it give?
Its activity is about 3 fold vs CTLA4.B3.

And the activity [2]?
The activity was about 2 fold vs CTLA4.B3.B6.

What about the Kd [3] of the same binder?
Its Kd is under 1 nM.
